{"source": "paper PMC8860590", "about": "“Identification, functional characterization, assembly and structure of ToxIN type III toxin–antitoxin complex from E. coli”", "key": {"ToxN (ToxNEc) [1]": {"molecular_target": "T1, ToxN (ToxNEc) (Escherichia coli strain 680, UniProt PDB:7D8O_1 1-187)", "assay": "ITC; one-site fit; ITC: 50 mM KH2PO4 pH 7, 100 mM KCl, 15°C; 2-5 uM RNA in cell, 35-50 uM ToxN in syringe", "conditions": "protein: recombinant, tags: N-terminal His6 (pCold II)"}, "ToxN (ToxNEc) [2]": {"molecular_target": "T1, ToxN (ToxNEc)", "assay": "ITC; no appreciable heat change; ITC: 50 mM KH2PO4 pH 7, 100 mM KCl, 15°C; 2-5 uM RNA in cell, 35-50 uM ToxN in syringe", "conditions": "protein: recombinant; tags: N-terminal His6 (pCold II); pseudoknot"}}}
{"binder": "GGAGGUGAUUUGCUACCUUUAAGUGCAGCUAGAA (structured_RNA)", "note": "[Δ5'-ToxI]", "values": [{"measurement": "Kd", "setting": "ToxN (ToxNEc) [1]; pseudoknot with 3' single-stranded overhang", "result": "47.3 ± 7.4", "unit": "nM"}]}
{"binder": "GGAUUCAGGUGAUUUGCUACCUUUAAGUGCA (structured_RNA)", "note": "[Δ3'-ToxI]", "values": [{"measurement": "Kd", "setting": "ToxN (ToxNEc) [1]; pseudoknot with 5' single-stranded overhang", "result": "243 ± 55", "unit": "nM"}]}
{"binder": "GGAGGUGAUUUGCUACCUUUAAGUGCA (structured_RNA)", "note": "[27mer (core pseudoknot)]", "values": [{"measurement": "binding result", "setting": "ToxN (ToxNEc) [2]", "result": "no binding"}]}
